We go through two molecules from US6995018B1, “Complex formed by N-linked glycoproteins (SIBLINGS)and Factor H” (The United States of America as represented by the …, priority 1999, dated 2006).

“Also recorded” adds a separate entry of the source.

In experiment [1] the target is T1, purified human complement Factor H (Homo sapiens, UniProt P08603).
T1 construct: purchased Quidel Corporation (San Diego, Calif.)
The experiment can be described thus: Steady state fluorescence titration of Factor H with SIBLINGS proteins. The settings on record: fluorescence quenching at 347 nm, excitation 295 nm. The format is binding. An excerpt:
FIGS. 3A and 3B are graphs which show the result of a titration of Factor H with BSP.
The salient structural features of Factor H include 20 short consensus repeats (SCRs) that contain four cysteine residues forming two disulfide bonds per repeat. In addition, each SCR contains one conserved tryptophan residue per repeat and Factor H is known to interact with several sialic acid-containing proteins. Therefore, binding interactions between members of the SIBLINGS family of proteins and Factor H can be studied by steady state fluorescence.
Steady state fluorescence studies were accomplished by titrating purified human complement Factor H with rBSP, rOPN, and rDMP1 followed by excitation at 295 nm and monitoring emission between 300 and 450 nm. The emission profile of Factor H alone yields a peak at 347 nm. The addition of rBSP, rOPN, or rDMP1 in nm increments causes a relative fluorescent intensity quenching. Conversion of the fluorescent intensity titration into a binding curve by determining the fraction of binding sites occupied as the fractional change in fluorescence quenching at 347 nm yields a saturable binding curve. […] Given that normal serum concentration of Factor H is ^˜0.5 mg/mL it is probable that virtually all BSP, OPN, and DMP1 in serum will be complexed with Factor H.

In experiment [2] the test system is Murine erythroleukemia (MEL) cells. The experiment can be described thus: Alternate complement mediated cell lysis assay, MEL cells with normal human serum. The format is cell-based. Particulars: for protection of MEL cells from complement-mediated lysis (cell viability): 10 μg/mL protein 10 min, normal human serum 1:10, 2 h, trypan blue and MTT. The protocol:
MEL cells were rinsed three times with GVB-MgEGTA buffer, resuspended in GVB-MgEGTA at a density of 5×10^6 cells/mL, and incubated at 37° C. with different concentrations of normal human serum. After 2 hrs, cells were harvested for trypan blue exclusion assay. The thiazolium blue assay was carried out at identical serum dilutions and cell viability was determined by absorbance at 560 nm. Each data point represents the average of three measurements. The error bars represent the standard deviation of the mean (A). MEL cells in GVB-MgEGTA buffer were incubated with 10 μg/mL of either rBSP or rOPN for 10 minutes at 37° C. Normal human serum was then added at a dilution of 1:10 and the cells were returned to 37° C., incubated for 2 hours and cell viability was determined by trypan blue and thiazolyl blue (MTT) reduction assays (B). Data from 3–7 separate experiments, with treatment replicates in triplicate, was combined to yield mean values. Error bars represent the standard error of the mean. N=number of experiments combined.
MEL cells prepared as in FIG. 8 were treated with normal rBSP (10 μg/mL), rBSP whose RGD sequence had been mutated to KAE ([…]), and either GRGDS (SEQ ID NO: 10) peptide (400 μM) followed by rBSP or an αVβ3 antibody (1:4000) followed by rBSP for 10 minutes prior to the addition of normal human serum. The cells were then incubated for […] after which cell viability determined using the MTT assay (A). A cohort of MEL cells were pretreated with rOPN (10 μg/mL) alone, GRGDS (SEQ ID NO: 10) peptide followed by rOPN, the αVβ3 antibody followed by rOPN, or an anti-CD44 antibody (Chemicon, Co.) followed by rOPN, or hyaluronan (HA) followed by rOPN (B). Cells were then treated with normal human serum and viability assayed as in FIG. 8. […] The data represents the mean and standard error of the mean for three separate experiments. Statistical significance was determined by analysis of variance. Percent cell viability was determined using A560 absorbance values of various conditions and a control where no serum had been added (100% viable). The cross-hatched region represents that range of values observed when normal human serum (1:10) alone was added (maximal cell death).
The first model system employed was a murine erythroleukemia (MEL) cell line which when incubated with normal human serum can be readily assayed for alternate complement pathway (ACP)-mediated cell lysis (Varnet et al., Curr. Opin. Cell Biol., 8(5):724–730, 1996). Cell survival was measured by both trypan blue dye exclusion and by thiazolyl blue (MTT) reduction by living mitochondria. Titration with dilutions of normal human serum and time courses were carried out to define optimal incubation conditions. At 1:10 dilution, human serum totally lysed the MEL cells as measured by both assay systems (FIG. 8A).
Murine erytliroleukemia (MEL) cells (a gift of Dr. Marilyn Farquhar, Univ. CA San Diego.) grown in DMEM containing 10% fetal bovine serum and 4 mM glutamine were rinsed three times with gelatin veronal buffer with Mg2^+ and EGTA (GVB-MgEGTA, Sigma, St. Louis, Mo.). Cells were resuspended in GVB-MgEGTA at a density of 5×10^6 cells/mL and incubated at 37° C. with different concentrations of normal human serum diluted in GVB-MgEGTA. […] Cell viability was determined spectrophotometrically by absorbance at 560 nm. […]

Experiment [3] deals with MCF-7 breast cancer cells. The experiment in a line: Alternate complement pathway cell lysis assay with guinea pig serum, MCF-7. It counts as cell-based, human. Particulars: MCF-7, 10 μg/mL, guinea pig serum 1:5, trypan blue and MTT. The protocol:
(§1) Human cancer cell lines, MCF-7 (A) and U-266 (B) cells were rinsed three time with GVB-MgEGTA buffer and subsequently treated exactly as in the MEL cell complement-mediated cell lysis assay described above except complement active guinea pig serum (GPS) was substituted for human serum. Three different dilutions of GPS were assayed. For cultures pretreated with 10 μg/mL BSP or OPN, the dilution of GPS used was 1:5. Cell viability was determined by both trypan blue exclusion (solid bar) and MTT (open bar) assay. The bars represent the mean values of triplicate samples and the error bars are the standard deviation values.
(§2) Murine erytliroleukemia (MEL) cells (a gift of Dr. Marilyn Farquhar, Univ. CA San Diego.) grown in DMEM containing 10% fetal bovine serum and 4 mM glutamine were rinsed three times with gelatin veronal buffer with Mg2^+ and EGTA (GVB-MgEGTA, Sigma, St. Louis, Mo.). Cells were resuspended in GVB-MgEGTA at a density of 5×10^6 cells/mL and incubated at 37° C. with different concentrations of normal human serum diluted in GVB-MgEGTA. […] Cell viability was determined spectrophotometrically by absorbance at 560 nm. […] Normal human serum collected for good complement activity was then added at a dilution of 1:10 and the cells returned to 37° C. for 2 hours and cell viability was determined by trypan blue-exclusion and MTT assays. […]

The next experiment deals with U-266 myeloma cells. The experiment in a line: Alternate complement pathway cell lysis assay with guinea pig serum, U-266. It counts as cell-based, human. Particulars: U-266, 10 μg/mL, guinea pig serum 1:5, trypan blue and MTT. The protocol:
as §1, §2

T1 sequence (P08603 19-1231): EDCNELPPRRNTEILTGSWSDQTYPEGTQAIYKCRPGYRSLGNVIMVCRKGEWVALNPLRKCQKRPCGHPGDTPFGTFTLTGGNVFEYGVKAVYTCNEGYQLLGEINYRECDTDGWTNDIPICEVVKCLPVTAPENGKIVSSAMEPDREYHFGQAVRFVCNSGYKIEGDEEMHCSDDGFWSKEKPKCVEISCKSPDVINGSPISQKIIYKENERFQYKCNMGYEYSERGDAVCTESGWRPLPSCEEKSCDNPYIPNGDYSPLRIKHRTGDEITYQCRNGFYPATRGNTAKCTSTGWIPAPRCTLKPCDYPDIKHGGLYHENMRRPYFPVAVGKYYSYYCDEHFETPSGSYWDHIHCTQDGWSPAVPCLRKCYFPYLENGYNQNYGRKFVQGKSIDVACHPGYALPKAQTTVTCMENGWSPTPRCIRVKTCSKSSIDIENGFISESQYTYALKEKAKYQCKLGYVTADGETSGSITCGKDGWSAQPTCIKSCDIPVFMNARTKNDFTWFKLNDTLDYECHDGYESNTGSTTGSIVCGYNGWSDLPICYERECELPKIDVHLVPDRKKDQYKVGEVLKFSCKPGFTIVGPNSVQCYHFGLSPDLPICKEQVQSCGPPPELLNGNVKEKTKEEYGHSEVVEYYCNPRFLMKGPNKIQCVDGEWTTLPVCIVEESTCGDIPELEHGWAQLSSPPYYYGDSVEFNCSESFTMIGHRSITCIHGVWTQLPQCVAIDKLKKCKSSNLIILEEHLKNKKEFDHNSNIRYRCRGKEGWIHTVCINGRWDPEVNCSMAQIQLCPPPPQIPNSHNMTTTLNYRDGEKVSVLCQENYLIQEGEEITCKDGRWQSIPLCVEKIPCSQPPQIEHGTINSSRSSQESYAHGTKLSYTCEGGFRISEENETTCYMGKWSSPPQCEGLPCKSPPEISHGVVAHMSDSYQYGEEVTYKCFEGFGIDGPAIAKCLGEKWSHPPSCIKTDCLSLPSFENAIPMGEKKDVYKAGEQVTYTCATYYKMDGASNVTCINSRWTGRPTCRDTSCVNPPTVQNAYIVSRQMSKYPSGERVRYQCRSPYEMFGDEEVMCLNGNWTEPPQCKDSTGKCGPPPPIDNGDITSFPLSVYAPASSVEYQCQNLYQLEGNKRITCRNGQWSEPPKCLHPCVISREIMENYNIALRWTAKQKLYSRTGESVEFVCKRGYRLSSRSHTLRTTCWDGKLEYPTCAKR

B1: DMP1: dentin matrix protein, SIBLINGS family member; recombinant from adenoviral construct (protein)
chain: LPVTRYQNNESEDSEEWKGHLAQAPTPPLESSESSEGSKVSSEEQANEDPSDSTQSEEGLGSDDHQYIYRLAGGFSRSTGKGGDDKDDDEDDSGDDTFGDDDSGPGPKDRQEGGNSRLGSDEDSDDTIQASEESAPQGQDSAQDTTSESRELDNEDRVDSKPEGGDSTQESESEEHWVGGGSDGESSHGDGSELDDEGMQSDDPESIRSERGNSRMNSAGMKSKESGENSEQANTQDSGGSQLLEHPSRKIFRKSRISEEDDRSELDDNNTMEEVKSDSTENSNSRDTGLSQPRRDSKGDSQEDSKENLSQEESQNVDGPSSESSQEANLSSQENSSESQEEVVSESRGDNPDPTTSYVEDQEDSDSSEEDSSHTLSHSKSESREEQADSESSESLNFSEESPESPEDENSSSQEGLQSHSSSAESQSEESHSEEDDSDSQDSSRSKEDSNSTESKSSSEEDGQLKNIEIESRKLTVDAYHNKPIGDQDDNDCQDGY
For the molecule B1, the “binding constant with Factor H” value in experiment [1] is reported as “in the nM range”. Moreover, in experiment [2], the “dose relation of protection of MEL cells from alternate complement pathway-mediated lysis” value is recorded as “dose related responses” and the “protection of MEL cells from complement-mediated lysis (cell viability)” value was “conferred protection; also recorded: protect the cells”.

B2: BSP: Bone sialoprotein, phosphorylated and sulfated integrin-binding glycoprotein, SIBLINGS family; recombinant form from adenovirus-infected human marrow stromal fibroblasts (protein)
chain: FSMKNLHRRVKIEDSEENGVFKYRPRYYLYKHAYFYPHLKRFPVQGSSDSSEENGDDSSEEEEEEEETSNEGENNEESNEDEDSEAENTTLSATTLGYGEDATPGTGYTGLAAIQLPKKAGDITNKATKEKESDEEEEEEEEGNENEESEAEVDENEQGINGTSTNSTEAENGNGSSGGDNGEEGEEESVTGANAEGTTETGGQGKGTSKTTTSPNGGFEPTTPPQVYRTTSPPFGKTTTVEYEGEYEYTGVNEYDNGYEIYESENGEPRGDNYRAYEDEYSYFKGQGYDGYDGQNYYHHQ
With B2, the “binding constant with Factor H” value in experiment [1] is “in the nM range”. For the same molecule, the “dose relation of protection of MEL cells from alternate complement pathway-mediated lysis” value in experiment [2] is given as “dose related responses”. The “protection of MEL cells from complement-mediated lysis (cell viability)” value is “protect” in experiment [2] and “completely protected” in experiment [2] (listed as recombinant BSP). The “survival and protection from complement-mediated cell lysis” value in experiment [3] is “enhanced survival and protection”; with U-266 myeloma cells, “enhanced survival and protection”.
